Values quoted from earlier work as cited in patent US9919022B2, “Use of angiotensin II (AII) receptor agonists to prevent or reduce hemodialysis-associated skeletal muscle cramps” (priority 2015, dated 2018).
Like-named read-outs stand apart in the source and are kept apart here. Blank lines part the entries; values can stand above or below the compound they belong to.

- serum half-lives (serum): less than one
Compound: CC[C@H](C)[C@H](NC(=O)[C@H](Cc1ccc(O)cc1)NC(=O)[C@@H](N)C(C)C)C(=O)N[C@@H](Cc1cnc[nH]1)C(=O)N1CCC[C@H]1C(=O)N[C@@H](Cc1ccccc1)C(=O)O [angiotensin IV, Val-Tyr-Ile-His-Pro-Phe]

Compound: Arg-Val-Tyr-Ile-His-Pro-Phe [Angiotensin III]
- serum half-lives (in vivo): less than one

Compound: H-Asp-Arg-Val-Tyr-Ile-His-Pro-Phe-OH (H-DRVYIHPF-OH; listed as Homo sapiens) [angiotensin II]
- terminal serum half-life (serum): less than 30 minutes
